From patent US20100015058A1 (STANFORD UNIVERSITY, published 2010) come the findings set out here.

In experiment [1] the target is T1, integrin αvβ3 (human, UniProt P06756 31-1048; P05106 27-788).
T1 construct: whole, on cells; Endogenous receptor on U87MG human glioblastoma cells in the IC50 assays; also called integrin alpha v beta 3; human integrin αvβ3
Kind of experiment: competitive binding with 125I-c(RGDyK) on U87MG cells.

Experiment [2] has as its target T2, gastrin-releasing peptide receptor (GRPR) (human, UniProt P30550 1-384).
T2 construct: whole, on cells; also called GRP receptor
Kind of experiment: competitive binding with 125I-[Tyr4]BBN on PC-3 cells.

In experiment [3] the target is T1, integrin αvβ3. Kind of experiment: competitive binding with ^125I-c(RGDyK) on U87MG cells.
Method: The best-fit 50% inhibitory concentration (IC₅₀) values were calculated by fitting the data with nonlinear regression using GraphPad Prism (GraphPad Software). Experiments were performed twice with triplicate samples.
Experiment [4] has as its target T2, gastrin-releasing peptide receptor …. Kind of experiment: displacement of ^125I-[Tyr^4]BBN from PC-3 cells.
Experiment [5] deals with T1, integrin αvβ3. The experiment in a line: competitive displacement of ^125I-echistatin on U87MG cells.
Method: (§1) The best-fit 50% inhibitory concentration (IC₅₀) values were calculated by fitting the data with nonlinear regression using Graph-Pad Prism (GraphPad Software, Inc.). Experiments were performed with triplicate samples.
Experiment [6] deals with T2, gastrin-releasing peptide receptor …. Kind of experiment: displacement of ^125I-[Tyr^4]BBN from 10^5 PC-3 cells.
Method: as §1
Experiment [7] has the same target. Kind of experiment: displacement of ^125I-[Tyr^4]BBN from PC-3 cells; determined with FB-PEG3-RGD-BBN.
The target is the same in experiment [8]. Kind of experiment: competitive binding with 125I-[Tyr4]BBN on PC-3 cells; determined with NOTA-RGD-BBN.

T2 sequence (P30550 whole entry): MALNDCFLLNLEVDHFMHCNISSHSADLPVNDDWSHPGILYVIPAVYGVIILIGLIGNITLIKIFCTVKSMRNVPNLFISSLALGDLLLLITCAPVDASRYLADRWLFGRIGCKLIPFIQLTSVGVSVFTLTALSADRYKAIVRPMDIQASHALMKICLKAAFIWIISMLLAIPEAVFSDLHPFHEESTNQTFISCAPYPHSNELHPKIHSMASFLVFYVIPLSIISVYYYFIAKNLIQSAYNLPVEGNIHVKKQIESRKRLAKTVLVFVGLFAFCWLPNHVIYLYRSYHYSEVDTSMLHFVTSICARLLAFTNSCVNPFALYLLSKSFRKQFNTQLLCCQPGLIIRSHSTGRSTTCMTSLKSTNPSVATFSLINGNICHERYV
T1 sequence (P06756 31-1048, chain 1 of 2): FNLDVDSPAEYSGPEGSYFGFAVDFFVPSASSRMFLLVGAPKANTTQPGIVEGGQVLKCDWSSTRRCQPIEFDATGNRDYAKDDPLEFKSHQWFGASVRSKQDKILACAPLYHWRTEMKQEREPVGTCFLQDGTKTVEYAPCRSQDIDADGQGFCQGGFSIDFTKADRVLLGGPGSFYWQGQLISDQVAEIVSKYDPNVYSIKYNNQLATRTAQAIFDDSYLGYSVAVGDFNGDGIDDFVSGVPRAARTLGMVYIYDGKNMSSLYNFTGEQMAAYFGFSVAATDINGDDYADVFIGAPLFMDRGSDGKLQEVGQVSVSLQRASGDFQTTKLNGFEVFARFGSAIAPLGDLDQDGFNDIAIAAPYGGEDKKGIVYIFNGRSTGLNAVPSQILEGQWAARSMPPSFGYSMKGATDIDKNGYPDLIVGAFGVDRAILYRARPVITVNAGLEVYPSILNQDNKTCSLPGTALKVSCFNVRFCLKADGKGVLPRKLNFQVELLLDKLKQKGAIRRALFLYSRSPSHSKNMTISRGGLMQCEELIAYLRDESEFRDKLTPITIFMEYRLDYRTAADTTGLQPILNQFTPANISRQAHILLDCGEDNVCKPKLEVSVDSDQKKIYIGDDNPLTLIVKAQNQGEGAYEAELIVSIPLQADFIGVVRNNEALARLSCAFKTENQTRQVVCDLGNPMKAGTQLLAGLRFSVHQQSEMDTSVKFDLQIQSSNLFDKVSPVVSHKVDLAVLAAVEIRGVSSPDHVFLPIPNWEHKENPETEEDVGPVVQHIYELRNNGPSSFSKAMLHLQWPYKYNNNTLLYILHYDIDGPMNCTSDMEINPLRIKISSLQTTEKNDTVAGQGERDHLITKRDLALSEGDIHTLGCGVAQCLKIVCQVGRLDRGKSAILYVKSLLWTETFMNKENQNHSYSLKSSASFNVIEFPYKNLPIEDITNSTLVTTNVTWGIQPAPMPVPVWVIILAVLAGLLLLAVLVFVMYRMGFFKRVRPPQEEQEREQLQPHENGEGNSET
T1 sequence (P05106 27-788, chain 2 of 2): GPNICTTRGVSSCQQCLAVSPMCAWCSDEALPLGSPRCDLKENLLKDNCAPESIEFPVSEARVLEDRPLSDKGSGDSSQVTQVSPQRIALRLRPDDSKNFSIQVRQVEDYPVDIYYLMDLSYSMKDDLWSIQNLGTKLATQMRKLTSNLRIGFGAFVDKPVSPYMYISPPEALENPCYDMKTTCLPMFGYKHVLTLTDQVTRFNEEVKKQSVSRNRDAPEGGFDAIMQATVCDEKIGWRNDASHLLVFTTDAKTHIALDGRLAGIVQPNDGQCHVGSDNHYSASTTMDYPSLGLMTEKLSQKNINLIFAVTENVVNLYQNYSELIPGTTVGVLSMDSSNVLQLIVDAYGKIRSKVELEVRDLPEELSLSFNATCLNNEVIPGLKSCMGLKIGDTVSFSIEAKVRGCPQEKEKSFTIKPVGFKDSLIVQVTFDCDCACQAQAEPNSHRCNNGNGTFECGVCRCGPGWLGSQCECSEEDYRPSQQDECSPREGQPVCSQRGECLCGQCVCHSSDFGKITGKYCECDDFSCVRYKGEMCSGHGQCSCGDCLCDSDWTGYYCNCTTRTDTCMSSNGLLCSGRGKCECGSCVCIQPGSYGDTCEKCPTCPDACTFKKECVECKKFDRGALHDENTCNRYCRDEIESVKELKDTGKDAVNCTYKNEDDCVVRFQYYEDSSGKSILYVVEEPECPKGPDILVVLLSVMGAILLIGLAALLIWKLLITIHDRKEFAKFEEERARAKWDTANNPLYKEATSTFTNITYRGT

B1: DOTA-RGD-BBN (VIII) (peptide)
peptide 1: RGDYK
peptide 2: EQWAVGHLM
modifications: not fully specified; DOTA (from DOTA-OSSu) on the amine of RGD-bombesin; Aca between Glu and Gln; C-terminal amide (Met-NH2); cyclic (cyclo); D-Tyr at position 4; Lys side chain joined to the Glu linker
notes: also called DOTA-RGD-bombesin; ^64Cu-DOTA-RGD-BBN
Regarding B1, the IC50 was 21.6 nM with integrin αvβ3 [1] and 85.8 nM in experiment [2].

B2: RGD-BBN, cyclo(Arg-Gly-Asp-D-Tyr-Lys)-Glu-(Aca-Gln-Trp-Ala-Val-Gly-His-Leu-Met-NH2) (peptide)
peptide 1: RGDYK
peptide 2: EQWAVGHLM
modifications: free amino group on Glu; Glu side-chain carboxylate joined to Aca; Aca between Glu and Gln; C-terminal amide (Met-NH2); cyclic (cyclo); D-Tyr at position 4; Lys side chain ε-amine joined to the α-carboxylate of Glu
notes: also called Glu-RGD-BBN; RGD-bombesin
For the molecule B2, the IC50 was determined as 17.9 nM with integrin αvβ3 [3] and 67.9 nM in experiment [4]. In the case of Aca-QWAVGHLM-NH2 (also called BBN monomer; cold BBN) [Aca-BBN(7-14), Aca-Gln-Trp-Ala-Val-Gly-His-Leu-Met-NH2], the binding result with integrin αvβ3 [3] is recorded as “no binding”.

B3: FB-NH-Glu-BBN(7-14)-c(RGDyK) (FB-BBN-RGD) (peptide)
peptide 1: RGDYK
peptide 2: EQWAVGHLM
modifications: 4-fluorobenzoyl (FB) on the Glu amino group; Aca between Glu and Gln; C-terminal amide (Met-NH2); cyclic (cyclo); D-Tyr at position 4; Lys joined to one carboxylate of the Glu linker
notes: non-radioactive FB form used in the IC50 assays; also called ^18F-FB-BBN-RGD
Take B3: the results for the IC50 (with integrin αvβ3 [5]; in experiment [6]) were 282 nM and 32 nM, respectively.

B4: PEG3-Glu-RGD-BBN (peptide)
peptide 1: RGDYK
peptide 2: EQWAVGHLM
modifications: not fully specified; PEG3 (11-amino-3,6,9-trioxaundecanoic acid) on the Glu amino group; Glu γ-carboxylate joined to Aca; Aca between Glu and Gln; C-terminal amide (Met-NH2); cyclic (cyclo); D-Tyr at position 4; Lys side chain ε-amine joined to the α-carboxylate of Glu
notes: also called PEG3-RGD-BBN
Molecule B4 returned an IC50 in experiment [4] of 85.5 nM.

B5: FB-PEG3-Glu-RGD-BBN (peptide)
peptide 1: RGDYK
peptide 2: EQWAVGHLM
modifications: 4-fluorobenzoyl (FB) on the amino group of the PEG3 spacer (11-amino-3,6,9-trioxaundecanoic acid), PEG3 on the Glu amino group; Glu γ-carboxylate joined to Aca; Aca between Glu and Gln; C-terminal amide (Met-NH2); cyclic (cyclo); D-Tyr at position 4; Lys side chain ε-amine joined to the α-carboxylate of Glu
notes: also called FB-PEG3-RGD-BBN; ^18F-FB-PEG3-Glu-RGD-BBN
In the case of B5, the IC50 in experiment [7] was 73.3 nM.

B6: NOTA-RGD-BBN (VII) (peptide)
peptide 1: RGDYK
peptide 2: EQWAVGHLM
modifications: NOTA (from p-SCN-Bn-NOTA, SCN-amine reaction) on the amine of RGD-BBN; Aca between Glu and Gln; C-terminal amide (Met-NH2); cyclic (cyclo); D-Tyr at position 4; Lys side chain joined to the Glu …
notes: also called NOTA-RGD-bombesin; ^64Cu-NOTA-RGD-BBN
For the molecule B6, the IC50 in experiment [8] was found to be 92.8 nM; in experiment [4], 55.9 nM.

B7: NH2-Glu-BBN(7-14)-c(RGDyK) (BBN-RGD) (peptide)
peptide 1: RGDYK
peptide 2: EQWAVGHLM
modifications: free amino group on Glu; Aca between Glu and Gln; C-terminal amide (Met-NH2); cyclic (cyclo); D-Tyr at position 4; Lys joined to one carboxylate of the Glu linker
notes: also called heterodimer BBN-RGD; BBN-RGD heterodimeric construct
Regarding B7, the IC50 with integrin αvβ3 [5] is 428 nM; in experiment [6], 35.7 nM.

What is called IC50 is the midpoint of a concentration-inhibition curve. Low readings indicate inhibition by little substance, high ones a need for much substance.
